B1: human hydrolase deficient (Q61L) Cdc42 (residues 1-177), GTP-loaded (domain or fragment)
chain: not shown
B2: GRD1 6xAla mutant (N1011A, N1015A, Q1016A, R1017A, E1018A, T1291A) (domain or fragment)
chain: GAMASKEKREKLEAYQHLFYLLQTNPTYLAKLIFQMPQNKSTKFMDSVIFTLYAYASAAAAEYLLLRLFKTALQEEIKSKVDQIQEIVTGNPTVIKMVVSFNRGARGQNALRQILAPVVKEIMDDKSLNIKTDPVDIYKSWVNQMESQTGEASKLPYDVTPEQALAHEEVKTRLDSSIRNMRAVTDKFLSAIVSSVDKIPYGMRFIAKVLKDSLHEKFPDAGEDELLKIIGNLLYYRYMNPAIVAPDAFDIIDLSAGGQLTTDQRRNLGSIAKMLQHAASNKMFLGDNAHLSIINEYLSQSYQKFRRFFQTACDVPELQDKFNVDEYSDLVTLAKPVIYISIGEIINTHTLLLDHQDAIAPEHNDPIHELLDDLGEVPTIESLIGESS
B3: IQGAP1 GTPase-activating protein (GAP)-related domain (residues 962-1345) (domain or fragment)
chain: GAMSKEKREKLEAYQHLFYLLQTNPTYLAKLIFQMPQNKSTKFMDSVIFTLYNYASNQREEYLLLRLFKTALQEEIKSKVDQIQEIVTGNPTVIKMVVSFNRGARGQNALRQILAPVVKEIMDDKSLNIKTDPVDIYKSWVNQMESQTGEASKLPYDVTPEQALAHEEVKTRLDSSIRNMRAVTDKFLSAIVSSVDKIPYGMRFIAKVLKDSLHEKFPDAGEDELLKIIGNLLYYRYMNPAIVAPDAFDIIDLSAGGQLTTDQRRNLGSIAKMLQHAASNKMFLGDNAHLSIINEYLSQSYQKFRRFFQTACDVPELQDKFNVDEYSDLVTLTKPVIYISIGEIINTHTLLLDHQDAIAPEHNDPIHELLDDLGEVPTIESLIGESS
B4: IQGAP2 GTPase-activating protein (GAP)-related domain (residues 875-1257) (domain or fragment, human)
chain: GAMSKERRKTLETYQQLFYLLQTNPLYLAKLIFQMPQNKSTKFMDTVIFTLYNYASNQREEYLLLKLFKTALEEEIKSKVDQVQDIVTGNPTVIKMVVSFNRGARGQNTLRQLLAPVVKEIIDDKSLIINTNPVEVYKAWVNQLETQTGEASKLPYDVTTEQALTYPEVKNKLEASIENLRRVTDKVLNSIISSLDLLPYGLRYIAKVLKNSIHEKFPDATEDELLKIVGNLLYYRYMNPAIVAPDGFDIIDMTAGGQINSDQRRNLGSVAKVLQHAASNKLFEGENEHLSSMNNYLSETYQEFRKYFKEACNVPEPEEKFNMDKYTDLVTVSKPVIYISIEEIISTHSLLLEHQDAIAPEKNDLLSELLGSLGEVPTVESFLGEG
B5: GRD2 6xAla mutant (N924A, N928A, Q929A, R930A, E931A, S1204A) (domain or fragment)
chain: GAMASKERRKTLETYQQLFYLLQTNPLYLAKLIFQMPQNKSTKFMDTVIFTLYAYASAAAAEYLLLKLFKTALEEEIKSKVDQVQDIVTGNPTVIKMVVSFNRGARGQNTLRQLLAPVVKEIIDDKSLIINTNPVEVYKAWVNQLETQTGEASKLPYDVTTEQALTYPEVKNKLEASIENLRRVTDKVLNSIISSLDLLPYGLRYIAKVLKNSIHEKFPDATEDELLKIVGNLLYYRYMNPAIVAPDGFDIIDMTAGGQINSDQRRNLGSVAKVLQHAASNKLFEGENEHLSSMNNYLSETYQEFRKYFKEACNVPEPEEKFNMDKYTDLVTVAKPVIYISIEEIISTHSLLLEHQDAIAPEKNDLLSELLGSLGEVPTVESFLGEG

Series [1] addresses B3. The series can be described thus: ITC.
The target of series [2] is B4. Briefly: ITC.
In series [3] the target is B4. Briefly: crystal structure.
The target of series [4] is human hydrolase deficient (Q61L) Rac1 (residues 1-177), GTP-bound (human, UniProt P63000 1-177, Q61L). The series can be described thus: ITC.
Series [5] deals with the molecule itself. Briefly: crystal structure.

On to B1, for which the results for the “stoichiometry N” value in series [1], in series [2] and in series [3] were 2 Cdc42 per GRD, 2 Cdc42 per GRD and 2 Cdc42 per GRD2, respectively.
For B2, the binding result in series [4] is “binds”.
Same read-out and setting: the same measure for B3: “binds”.
Turning to B4, the “stoichiometry N” value in series [5] is 2. The binding result in series [4] is “binds”.
For the molecule B5, the binding result in series [4] is reported as “binds”.
